Values joined by “and” are separate entries in the source; they are usually repeats but may differ in a detail not shown here. Equal values may be shown once. One block for each molecule: values may come before it. Ends that are not written are not given here. * marks the point of attachment. FITC = O=C1OC2(c3ccc(O)cc3Oc3cc(O)ccc32)c2ccc(NC(=S)*)cc21; Ahx = NCCCCCC(=O)O
Tests used:
[1] = molecular target: CHIP (UniProt Q9UNE7); test: fluorescence polarization titration; conditions: reference: unphosphorylated EEVD peptide; sites T636
[2] = system: HEK-293 cells; conditions: HEK-293, electrical impedance; ref [16]; cited from earlier work
[3] = system: SmBiT-CHIP-WT; test: NanoBiT live-cell interaction, HEK-293, SmBiT-CHIP-WT; type: cell-based; conditions: HEK-293, CHIP-WT, luminescence over 20 min, three independent transfections, Fig. 1E
Method: (§1) HEK293 and COS-7 cells were acquired from the UNC Lineberger Comprehensive Cancer Center Tissue Culture Facility. Cultures were maintained in Dulbecco’s Modified Eagle Medium with 10% fetal bovine serum at 37 °C and 5% CO2. Using the manufacturers’ instructions, X-tremeGENE 9 was used to transfect cells with plasmid DNA except for NanoBiT constructs, in which case we used Lipofectamine 3000 (Thermo Fisher Scientific). Where indicated, twenty-four hours post-transfection, cells were treated with 20 μM MG-132 (Selleck Chemicals) for 6 h or 100 μM cycloheximide (Sigma-Aldrich) for the stated duration.
(§2) NanoBiT Protein: Protein Interaction System (Promega) was used to measure protein-protein interaction data following the manufacturer’s instructions. As previously described, LgBiT-HSP70 and SmBiT-CHIP construct interactions were used as positive controls ([22]). Twenty-four hours post-transfection, the cells were collected, replated in 96-well clear bottom white-sided tissue culture plates, and maintained at 37 °C and 5% CO2 for 45 min. Nano-Glo Live Cell Reagent (Promega) was added, and luminescence was measured using a CLARIOstar microplate reader over 20 minutes. The total area under the maximum luminescence curve was quantified and used to compare changes in HSP70-CHIP interactions relative to the WT-WT conditions.

[4] = system: SmBiT-CHIP-G132N; test: NanoBiT live-cell interaction, COS-7, SmBiT-CHIP-G132N; type: cell-based; conditions: COS-7, CHIP-G132N, three independent transfections, Fig. 1F
Method: as §1, §2

[5] = molecular target: T1, CHIP-WT (Homo sapiens, UniProt Q9UNE7); test: Co-immunoprecipitation of HSP70 with CHIP-WT, COS-7; type: cell-based; conditions: Co-IP of MYC-CHIP-WT, vs HSP70-WT and HSP70-T636A, densitometry, Fig. 1I
T1 construct: His; made in house
T1 sequence (Q9UNE7 1-303): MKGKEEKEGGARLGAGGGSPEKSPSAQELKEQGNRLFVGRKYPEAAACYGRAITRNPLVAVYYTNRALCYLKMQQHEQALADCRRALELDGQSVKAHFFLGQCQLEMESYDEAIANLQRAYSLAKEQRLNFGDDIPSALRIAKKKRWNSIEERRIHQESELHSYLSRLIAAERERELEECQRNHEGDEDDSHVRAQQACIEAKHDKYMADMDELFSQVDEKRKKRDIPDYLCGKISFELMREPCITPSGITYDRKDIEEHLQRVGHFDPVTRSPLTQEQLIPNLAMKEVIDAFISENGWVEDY
Method: (§3) Samples were collected in a lysis buffer composed of 50 mM Tris-HCl (pH 7.4), 150 mM NaCl, 2 mM EDTA, and 1% Triton X-100, supplemented with 1X Halt protease and phosphatase inhibitor (Thermo Scientific). The samples were then sonicated and combined with Laemmli sample buffer (Bio-Rad). The lysates were resolved on 4–15% TGX Stain-Free gels (Bio-Rad) and transferred to PVDF membranes (Bio-Rad). The membranes were blocked in 5% milk and incubated with primary antibodies (Table S3) overnight at 4°C. Following this, HRP-conjugated secondary antibodies (Cell Signaling Technology) were applied. Detection was performed using Lumigen ECL Ultra (Lumigen, tma-100), and the blots were imaged with the ChemiDoc Imaging System (BioRad).
(§4) Ezview™ Red Anti-c-Myc Affinity Gel Beads (Sigma-Aldrich) were used for co-immunoprecipitation of myc-tagged proteins. Proteins were eluted via boiling before western blot analysis.

[6] = system: SmBiT-CHIP-G132N; test: NanoBiT live-cell interaction, HEK-293, SmBiT-CHIP-G132N; type: cell-based; conditions: HEK-293, CHIP-G132N, three independent transfections, p = 0.2114 vs. Δ with CHIP-WT, Fig. 1E
Method: as §1, §2

[7] = system: SmBiT-CHIP-WT; test: NanoBiT live-cell interaction, COS-7, SmBiT-CHIP-WT; type: cell-based; conditions: COS-7, CHIP-WT, three independent transfections, Fig. 1F
Method: as §1, §2

[8] = system: HSP70 steady-state levels in HEK-293 cells; test: Cycloheximide chase of HSP70 steady-state levels, HEK-293; type: cell-based; conditions: Flag immunoblot, representative, Fig. S1
Method: as §1, §3

[9] = system: HSP70 steady-state levels in COS-7 cells; test: Cycloheximide chase of HSP70 steady-state levels, COS-7; type: cell-based
Method: as §1, §3

[10] = molecular target: T2, CHIP-TPR (21–154) (UniProt Q9UNE7 21-154); test: biolayer interferometry, peptide on sensor; conditions: reference: biotin-EEVD peptide; sites T636
T2 construct: also called extended TPR domain of CHIP
T2 sequence (looked up): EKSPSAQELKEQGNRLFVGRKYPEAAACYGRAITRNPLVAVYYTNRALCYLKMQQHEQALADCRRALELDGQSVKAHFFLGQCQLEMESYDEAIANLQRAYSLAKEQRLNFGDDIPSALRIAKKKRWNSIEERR

[11] = system: CHIP TPR-UBOX; test: Fluorescence polarization, CHIP TPR-UBOX (CC deletion); type: binding; conditions: FP; Fig. 2C
Description: (§5) A complete list of vectors is listed in Table S1 and deposited at Addgene (pending ID). Plasmids were maintained and propagated in DH5-alpha E. coli and purified using the Miniprep plasmid kit (Qiagen) or Quantum Prep® Plasmid Midiprep Kit (Bio-Rad). We used the Q5 Site-Directed Mutagenesis Kit (NEB) or […] II XL (NC9045762, Agilent Technologies) site-directed mutagenesis kit for editing plasmids and validated via DNA sequencing. Lifetein or Genscript synthesized the peptides used in the study. […] The amino-terminal biotin-labeled HSP70 tail peptide (biotin-[…], termed as biotin-EEVD) and the amino-terminal biotin-labeled pT-HSP70 tail peptide (biotin-GSGSGP(pT)IEEVD, termed as biotin-pEEVD) were purchased (Lifetein). The peptides used for fluorescent polarization were N-FITC-Ahx-[…] (EEVD) or N-FITC-Ahx-GSGP(pT)IEEVD (pEEVD). Recombinant CHIP-TPR constructs were recombinantly expressed using the pHis//2 CHIP-TPR (21–154) plasmid and purified as previously described ([21]) and additional CHIP proteins were purified as previously described ([22]).
(§6) The N-terminally-labelled peptides were loaded into PCR reaction tubes at 2X (40 nM), with the final concentration being 20 nM. Recombinant CHIP constructs were added into the tubes at the indicated concentrations. […] The polarization reads were normalized to the dilution buffer. […]

[12] = molecular target: CHIP TPR-CC (Homo sapiens, UniProt Q9UNE7); test: Fluorescence polarization, CHIP TPR-CC fragment; type: binding; conditions: FP; Fig. 2C
Description: as §5, §6

[13] = molecular target: T2, CHIP-TPR (21–154); test: fluorescence polarisation; 20 nM N-terminally FITC-labelled peptide, recombinant CHIP constructs at increasing concentrations, 30 minutes at room temperature; one site/total binding fit with Bmax constrained to 100; conditions: both partners purified
[14] = molecular target: T3, recombinant full-length CHIP-G132N (UniProt Q9UNE7 1-303, G132N); test: as above; conditions: both partners purified
T3 construct: CHIP, full-length recombinant protein with G132N
T3 sequence (looked up): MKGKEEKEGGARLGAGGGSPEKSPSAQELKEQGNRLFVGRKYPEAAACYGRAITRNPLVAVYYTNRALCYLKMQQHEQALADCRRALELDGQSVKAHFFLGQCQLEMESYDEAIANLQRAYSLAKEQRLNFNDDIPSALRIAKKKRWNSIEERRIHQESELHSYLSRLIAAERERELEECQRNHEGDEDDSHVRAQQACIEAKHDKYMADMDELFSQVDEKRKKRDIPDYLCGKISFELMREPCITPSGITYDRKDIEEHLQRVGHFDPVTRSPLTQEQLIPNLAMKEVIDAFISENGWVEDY

[15] = molecular target: T4, recombinant full-length CHIP-WT (UniProt Q9UNE7 1-303); test: as above; conditions: both partners purified
T4 sequence (looked up): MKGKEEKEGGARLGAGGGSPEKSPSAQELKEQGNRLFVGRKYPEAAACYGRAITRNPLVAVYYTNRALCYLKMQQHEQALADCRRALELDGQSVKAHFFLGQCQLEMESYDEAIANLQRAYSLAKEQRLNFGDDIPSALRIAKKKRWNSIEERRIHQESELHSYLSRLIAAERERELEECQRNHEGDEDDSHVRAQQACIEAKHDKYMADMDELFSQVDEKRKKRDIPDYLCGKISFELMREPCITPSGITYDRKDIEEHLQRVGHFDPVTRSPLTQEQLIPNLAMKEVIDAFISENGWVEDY

[16] = molecular target: recombinant full-length CHIP-G132N (UniProt Q9UNE7 1-303, G132N); test: FP
[17] = molecular target: recombinant full-length CHIP-K30A (UniProt Q9UNE7 1-303, K30A); test: FP
[18] = molecular target: T5, CHIP domain fragment: TPR with the coiled-coil domain; test: FP
T5 chain: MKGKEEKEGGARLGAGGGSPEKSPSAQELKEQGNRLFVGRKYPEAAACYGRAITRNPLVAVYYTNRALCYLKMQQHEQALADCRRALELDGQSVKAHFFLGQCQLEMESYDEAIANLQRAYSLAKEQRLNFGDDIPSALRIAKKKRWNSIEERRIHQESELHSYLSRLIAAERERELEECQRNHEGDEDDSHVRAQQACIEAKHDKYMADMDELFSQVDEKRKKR

[19] = molecular target: T6, recombinant full-length CHIP-WT (UniProt Q9UNE7 1-303); test: FP
T6 chain: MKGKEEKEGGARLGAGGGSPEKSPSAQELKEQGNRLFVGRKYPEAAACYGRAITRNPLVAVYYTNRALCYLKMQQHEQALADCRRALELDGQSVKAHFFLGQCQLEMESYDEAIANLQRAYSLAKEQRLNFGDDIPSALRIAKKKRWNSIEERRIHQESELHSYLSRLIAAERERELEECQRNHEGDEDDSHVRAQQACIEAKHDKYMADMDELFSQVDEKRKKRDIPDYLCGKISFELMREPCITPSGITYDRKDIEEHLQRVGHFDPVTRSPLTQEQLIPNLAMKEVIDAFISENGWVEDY

[20] = system: HSP70; test: Co-immunoprecipitation of CHIP variants with HSP70, COS-7; type: cell-based; conditions: Co-IP of MYC-CHIP, Fig. 1I
Method: as §3, §4

[21] = system: LgBiT-HSP70 T636A/D; test: NanoBiT live-cell interaction, HEK-293, CHIP variants with LgBiT-HSP70; type: cell-based; conditions: compared with CHIP-WT, Fig. 1E
Method: as §1, §2

[22] = system: LgBiT-HSP70 T636A/D; test: NanoBiT live-cell interaction, COS-7, CHIP variants with LgBiT-HSP70; type: cell-based; conditions: Fig. 1F
Method: as §1, §2

fold change [1]: weaker
Molecule: HSP70 C-terminal tail (from UniProt P0DMV8) pEEVD (pT636) peptide

reduction of HSP70 co-precipitated by CHIP-WT [5]: over 90%
Molecule: HSP70-T636D: phospho-mimetic version of HSP70
effect on cell growth / proliferation [2]: no effect
decrease in luminescence compared to HSP70-T636A [3]: 42%
Δ luminescence comparing HSP70-T636D to HSP70-T636A [4]: −66%
decrease in luminescence compared to HSP70-T636A [6]: 57%
Δ luminescence comparing HSP70-T636D to HSP70-T636A [7]: −85%
percent change of HSP70 level from time 0 ([8]; cycloheximide +MG132, 6 h (column from layout)): +98%
percent change of HSP70 level from time 0 ([8]; cycloheximide, 6 h, without MG132 (column from layout)): -80%
loss of HSP70 steady-state level after inhibiting translation ([9]; cycloheximide 100 μM, six hours, change from time 0, representative immunoblot, Fig. 1J): 76%
HSP70 steady-state level after cycloheximide ([9]; cycloheximide, six hours, compared to HSP70-WT and HSP70-T636A, Fig. 1J): more robust decreases
HSP70 steady-state level with proteasome inhibitor ([9]; with MG-132, Fig. 1J): recovery of protein levels

fold change [10]: weaker
Molecule: HSP70 C-terminal tail (from UniProt P0DMV8) biotin-pEEVD (pT636) peptide

EEVD tail interaction, effect of the coiled-coil domain [12]: minimal change
Molecule: N-FITC-Ahx-GSGPTIEEVD [unphosphorylated HSP70 tail peptide used for fluorescent polarization]
EEVD tail peptide interaction with U-box moved closer to TPR [11]: eliminated EEVD tail peptide interactions

binding result [13]: binds
binding result [14]: binds
binding result [15]: binds
Kd [16]: 9.2 µM
Kd [17]: 66 µM
Kd [18]: 28 µM
Kd [19]: 6.5 µM and 7 µM
B1: N-FITC-Ahx-GSGPTIEEVD (peptide)
peptide: {FITC-Ahx}-GSGPTIEEVD
notes: C-terminal tail of HSP70; tracer of the fluorescence polarisation assay; also called HSP70 peptide tracer; source: synthetic peptide (Lifetein or Genscript)

B2: CHIP-K30A: substitution known to disrupt the ability of CHIP's TPR domain to bind EEVD motifs (protein)
chain: MKGKEEKEGGARLGAGGGSPEKSPSAQELAEQGNRLFVGRKYPEAAACYGRAITRNPLVAVYYTNRALCYLKMQQHEQALADCRRALELDGQSVKAHFFLGQCQLEMESYDEAIANLQRAYSLAKEQRLNFGDDIPSALRIAKKKRWNSIEERRIHQESELHSYLSRLIAAERERELEECQRNHEGDEDDSHVRAQQACIEAKHDKYMADMDELFSQVDEKRKKRDIPDYLCGKISFELMREPCITPSGITYDRKDIEEHLQRVGHFDPVTRSPLTQEQLIPNLAMKEVIDAFISENGWVEDY
co-precipitation of HSP70 by CHIP variant [20]: failed to precipitate appreciable amounts of HSP70 construct above background levels
luminescence of CHIP variant with HSP70-T636A/D [21]: robust decrease in luminescence
luminescence of CHIP variant with HSP70 constructs [22]: limited luminescence detected
